Laboratory results reported in PMC10426277.

Molecular target: Peroxiredoxin 4 wildtype, recombinant full-length (human) (UniProt Q13162)
Assay: SPR

Chain of Sulfiredoxin (Srx), recombinant full-length (Q9BYN0 whole entry): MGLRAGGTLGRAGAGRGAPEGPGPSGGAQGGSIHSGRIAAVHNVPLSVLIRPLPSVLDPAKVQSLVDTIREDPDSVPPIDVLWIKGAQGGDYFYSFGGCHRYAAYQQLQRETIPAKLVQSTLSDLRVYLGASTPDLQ

Kd: 3.26 mM | koff: 0.00166 s⁻¹ | kon: 0.509 M⁻¹ s⁻¹
Substance: Sulfiredoxin (Srx), recombinant full-length (from UniProt Q9BYN0 1-137) (enzyme)
